Experimental data published in patent publication US20240287194A1, “Targeting Extracellular Matrix Proteins to Regulate NK Cell Function in Peripheral Tissues” (The General Hospital Corporation, priority 2021, published 2024).

Experiments:
Type in all cases: cell-based, mice
splenic cNK cells [1] = experiment: LEGENDplex chemokine release by splenic NK cells co-cultured with m157-MEF on ECM proteins; settings: for CCL5 release by splenic cNK cells / CXCL10 release by splenic cNK cells: 12 hours
Method: NK cells purified from spleens under sterile conditions were used for LEGENDplex experiments. Spleens from 8-9-week-old C57BL/6 female WT mice were harvested and mashed through a 70 μm filter. Cells were resuspended in RBC lysis for two minutes and washed with 1×PBS/2% FCS/5 mM EDTA. NK cells were enriched by negative selection using an NK cell isolation kit (Milteny Biotec, catalog no. 130-115-818) and magnetic LS columns (Milteny Biotec, catalog no. 130-042-401) according to the manufacturer's instructions. Enrichment of isolated NK cells was confirmed by flow cytometry and was 88-90% CD3^−NK1.1^+NKp46^+ cells. Enriched NK cells were resuspended in RPMI 1640 media supplemented with 10% FBS and 1% P/S.
ECM protein coating on wells was performed as previously described. 1×10^5 enriched splenic NK cells was mixed with 20 μg of respective ECM protein per well in RPMI 1640/10% FBS/1% P/S/20 mM Glutamine and incubated at RT for 10 minutes. NK cells and ECM mix were plated onto the ECM-coated well and were incubated at 37° C./5% CO2 for 2 hours. At the end of the incubation, 1×10^5 MEF (WT or m157) cells were added to the respective wells to obtain a 1:1 NK:MEF ratio. NK cells and MEF were co-cultured at 37° C. 5% CO2 for 24 hours supplemented with mIL-12 (10 ng/mL, Biolegend, catalog no. 577002) and mIL-15 (1 ng/ml, Shenandoah Biotechnology, catalog no. 200-07-100 μg). The supernatant was collected at 12- and 24-hour intervals, centrifuged to remove cells/cell debris and subsequently frozen at −80° C. until further use. Quantification of murine cytokines and chemokines (CCL2, CCL5, CXCL9, CXCL10) in supernatants was performed with LEGENDplex kits (Biolegend, catalog nos. 740451, 740622) according to manufacturer's instructions. In brief, a mix of capture beads with distinct size and fluorescence was incubated with undiluted S/N or standard dilutions for 2 hours at RT with constant shaking. Beads were washed, a biotinylated detection antibody was added and the plate was incubated for 1 hour at RT with constant shaking. The streptavidin-PE conjugate was added and further incubated for 30 minutes at RT on a shaker. Beads were washed and subsequently acquired on a BD LSRFortessa X-20 flow cytometer. Analysis and quantification of the results were done using LEGENDplex data analysis software (BioLegend). Quantification was reported as pg/ml for CCL2, CCL5, CXCL10 and as MFI for CXCL9.

[2] = tested on: Ly49H^+ splenic cNK cells; experiment: Splenic cNK cell co-culture with m157-MEF in the presence of ECM proteins (CD107a, IFNγ flow cytometry); settings: for Ly49H+ cNK cell degranulation (CD107a): 9 and 24 hours co-culture with m157-MEF, ECM coated 20 μg/cm2
Method: (§1) Single-cell suspensions from all samples were prepared by straining through a 70 μm filter. 2.4G2 supernatant treated cells were stained in 1×PBS/2% FCS/5 mM EDTA with the appropriate surface antibodies (Table 2) for 30 minutes at 4° C., washed and analyzed by flow cytometry. For intracellular staining, cells were fixed and permeabilized using True-Nuclear Transcription Buffer set (Biolegend, catalog no. 424401) according to the manufacturer's protocol then incubated with appropriate antibodies (Table 2) for 60 min at RT, washed and analyzed by flow cytometry. For in vitro signaling experiments, following the specified time points, cells were fixed with an equal volume of pre-warmed 1×aldehyde based fixation buffer (Biolegend, catalog no. 420801) for 20 min at RT. Fixed cells were permeabilized by drop-wise addition of chilled methanol-based solution True-Phos Perm Buffer (Biolegend, catalog no. 425401) while mixed on a vortex. Cells were stored in-20° C. and dark for 1-3 days before washing them two times with ˜3 mL of 1×PBS/2% FCS/5 mM EDTA. Cells were subsequently stained with appropriate antibodies against surface markers and specific phosphorylated signaling proteins (Table 2) for 60 min at RT, washed and analyzed by flow cytometry. Cells were assayed on a BD LSRFortessa X-20 flow cytometer (BD Bioscience, Billerica, MA, USA) and data were analyzed using FlowJo software Version 10 (Tree Star, Ashlad, OR, USA). NK cells in WT non-reporting mice were identified as CD3^− NK1.1^+NKp46^+.
(§2) For in vitro experiments in the presence of ECM components, Collagen I (Rat tail, Sigma, catalog no. 08-115), collagen III (Human placenta, Sigma, catalog no. C4407), collagen IV (Mouse, Sigma, catalog no. C0543), Elastin (Mouse lung, Sigma, catalog no. E6402), Laminin (Mouse, Thermo Fisher, catalog no. 23017015) and Fibronectin (Rat plasma, Sigma, catalog no. F0635) were diluted in 1×PBS and coated at 20 μ ENREF 45 g/cm^2 in a 24 well tissue culture plate for 30 minutes at RT with gentle shaking followed by overnight at 4° C. Spleens from Ncr1^iCre, ROSA^mT-mG, WT or Lair1^−/− mice were harvested as described above. Then, 5×10^6 splenocytes resuspended in RPMI 10% FBS/1% P/S/20 mM Glutamine were mixed with 20 μg of respective ECM protein per well and were incubated at RT for 10 minutes. Splenocytes and ECM mix were plated onto the ECM-coated well and were incubated at 37° C./5% CO2 for 2 hours (short ECM exposure) or 17 hours (long ECM exposure). At the end of the incubation, 1×10^5 MEF (WT or m157) cells were added to each well to obtain a 50:1 splenocyte:MEF ratio. For cell signaling experiments, hydrogen peroxide (H2O2) at a final concentration of 2.5 mM or 1×10^5 MEF-m157 cells were added to each well except in “0 min” wells which were unstimulated and fixed immediately. Splenocytes were stimulated with 2.5 mM H2O2 for 2 min and 5 min or were co-cultured with MEF-m157 for 30 min and 60 min (signaling) or 7 hours (CD107a and IFN[…]) at 37° C./5% CO2. Splenocytes and MEF in co-culture were supplemented with mIL-12 (10 ng/mL, Biolegend, catalog no. 577002), mIL-15 (1 ng/mL, Shenandoah Biotechnology, catalog no. 200-07) and hIL-2 (Biolegend, catalog no. 589104; only long ECM exposure) as well as for CD107a/IFN experiments. 1 μL of anti-CD107a-BV421 (1D4B, Biolegend, catalog no. 121618), 1×Brefeldin A (Biolegend, catalog no. 420601) and 1×Monensin (Biolegend, catalog no. 420701) were added. Following the co-culture, cells were washed with 1×PBS/2% FCS/5 mM EDTA and the pellet was resuspended in 2.4G2 blocking solution before flow cytometry staining.

splenic cNK cells [3] = experiment: Phospho-signaling in splenic cNK cells stimulated with H2O2 in the presence of ECM proteins; settings: baseline and 2- and 5-minute exposure to H2O2
Method: as §1, §2

splenic cNK cells [4] = experiment: Phospho-signaling in splenic cNK cells co-cultured with m157-MEF in the presence of ECM proteins
Method: as §1, with “Cells were stored in-20° C. and dark for 1-3 days before washing them two times with ˜3 mL of 1×PBS/2% FCS/5 mM EDTA.” left out, “NK cells in WT non-reporting mice were identified as CD3^− NK1.1^+NKp46^+.” left out

Row | Molecule | CCL5 release by splenic cNK cells (splenic cNK cells [1]) | CXCL10 release by splenic cNK cells (splenic cNK cells [1]) | CCL2 release by splenic cNK cells (splenic cNK cells [1]; 24 hours) | Ly49H+ cNK cell degranulation (CD107a) [2] | IFNγ production by Ly49H+ cNK cells ([2]; exposed to m157-MEF, 9 and 24 hours) | pNFκB in NK cells (splenic cNK cells [3]) | pSTAT3 in NK cells (splenic cNK cells [3]) | CXCL9 release by cNK cells (splenic cNK cells [1]; 24 hours) | phospho-NFκB (p65) in splenic cNK cells (splenic cNK cells [4]; after 30- and 60-minutes exposure to m157-MEF) | phospho-NFκB (p65) in splenic cNK cells (splenic cNK cells [4]; at baseline)
1 | collagen I: Collagen I (Rat tail, Sigma), dermal ECM protein | suppressed | significantly induced | significantly induced | potently blocked | suppressed | suppressive effect | suppressive effect | – | – | –
2 | collagen III: collagen III (Human placenta, Sigma), dermal ECM protein (protein, UniProt P02461 154-1221, looked up) Collagen alpha-1(III) chain: QYDSYDVKSGVAVGGLAGYPGPAGPPGPPGPPGTSGHPGSPGSPGYQGPPGEPGQAGPSGPPGPPGAIGPSGPAGKDGESGRPGRPGERGLPGPPGIKGPAGIPGFPGMKGHRGFDGRNGEKGETGAPGLKGENGLPGENGAPGPMGPRGAPGERGRPGLPGAAGARGNDGARGSDGQPGPPGPPGTAGFPGSPGAKGEVGPAGSPGSNGAPGQRGEPGPQGHAGAQGPPGPPGINGSPGGKGEMGPAGIPGAPGLMGARGPPGPAGANGAPGLRGGAGEPGKNGAKGEPGPRGERGEAGIPGVPGAKGEDGKDGSPGEPGANGLPGAAGERGAPGFRGPAGPNGIPGEKGPAGERGAPGPAGPRGAAGEPGRDGVPGGPGMRGMPGSPGGPGSDGKPGPPGSQGESGRPGPPGPSGPRGQPGVMGFPGPKGNDGAPGKNGERGGPGGPGPQGPPGKNGETGPQGPPGPTGPGGDKGDTGPPGPQGLQGLPGTGGPPGENGKPGEPGPKGDAGAPGAPGGKGDAGAPGERGPPGLAGAPGLRGGAGPPGPEGGKGAAGPPGPPGAAGTPGLQGMPGERGGLGSPGPKGDKGEPGGPGADGVPGKDGPRGPTGPIGPPGPAGQPGDKGEGGAPGLPGIAGPRGSPGERGETGPPGPAGFPGAPGQNGEPGGKGERGAPGEKGEGGPPGVAGPPGGSGPAGPPGPQGVKGERGSPGGPGAAGFPGARGLPGPPGSNGNPGPPGPSGSPGKDGPPGPAGNTGAPGSPGVSGPKGDAGQPGEKGSPGAQGPPGAPGPLGIAGITGARGLAGPPGMPGPRGSPGPQGVKGESGKPGANGLSGERGPPGPQGLPGLAGTAGEPGRDGNPGSDGLPGRDGSPGGKGDRGENGSPGAPGAPGHPGPPGPVGPAGKSGDRGESGPAGPAGAPGPAGSRGAPGPQGPRGDKGETGERGAAGIKGHRGFPGNPGAPGSPGPAGQQGAIGSPGPAGPRGPVGPSGPPGKDGTSGHPGPIGPPGPRGNRGERGSEGSPGHPGQPGPPGPPGAPGPCCGGVGAAAIAGIGGEKAGGFAPYYG | suppressed | significantly induced | significantly induced | potently blocked | – | increased | – | induced | highly amplified | significantly induced
